Data: patent US7776563B2, “Methods for identifying agents for treating cardiovascular disease using inhibition of myeloperoxidase binding” (The Cleveland Clinic Foundation, priority 2004, dated 2010)
Ends that are not written are not given here.

Biological target: binding of human apoA-1 to isolated human MPO (Homo sapiens, UniProt P05164)
Assay: Binding of human apoA-1 to plate-bound MPO in the presence of peptide
Settings: isolated human MPO bound to wells of a 96 well plate; apoA-1 binding determined in presence of peptide; FIG. 9
Method: Isolated human MPO was bound to the wells in a 96 well plate and then the binding of human apoA-1 to the MPO was determined in the presence of a peptide comprising the sequence N-Ac-(L) AEYHAKATEHLSTL, SEQ ID NO: 2 (also known as the L-ApoA-MPO peptide), a sequence comprising SEQ ID NO: 2 and D amino acids, also known as the D-apoA-MPO peptide, and a peptide comprising the sequence, N-Ac (L) KHETHSLAYAAET, SEQ ID NO: 4.

Sequence of binding of human apoA-1 to isolated human MPO (P05164 279-745 limits assumed): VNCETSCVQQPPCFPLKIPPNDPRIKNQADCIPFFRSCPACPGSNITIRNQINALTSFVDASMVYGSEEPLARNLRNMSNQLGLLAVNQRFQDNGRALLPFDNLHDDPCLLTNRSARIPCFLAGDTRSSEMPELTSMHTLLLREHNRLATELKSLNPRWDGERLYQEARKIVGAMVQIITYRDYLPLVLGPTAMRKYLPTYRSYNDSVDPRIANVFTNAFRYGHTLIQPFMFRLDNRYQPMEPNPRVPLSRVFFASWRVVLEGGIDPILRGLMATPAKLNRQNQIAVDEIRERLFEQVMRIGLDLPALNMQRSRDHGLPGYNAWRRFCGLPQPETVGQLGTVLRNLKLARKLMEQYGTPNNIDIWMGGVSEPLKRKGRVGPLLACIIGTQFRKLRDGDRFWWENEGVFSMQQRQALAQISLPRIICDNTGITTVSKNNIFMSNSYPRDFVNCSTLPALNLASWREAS
Sequence of binding of human apoA-1 to isolated human MPO (P05164 165-278 limits assumed): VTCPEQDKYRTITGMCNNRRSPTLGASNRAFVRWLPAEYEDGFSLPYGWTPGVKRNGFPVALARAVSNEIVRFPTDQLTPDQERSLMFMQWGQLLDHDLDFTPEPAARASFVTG

| effect on binding of apo A-1 to MPO | Substance |
| --- | --- |
| inhibited binding of apo A-1 to MPO | N-Ac-(L) AEYHAKATEHLSTL (Ac-AEYHAKATEHLSTL; listed as Homo sapiens) [L-ApoA-MPO peptide] |
| inhibited binding of apo A-1 to MPO | D-apoA-MPO peptide: a sequence comprising SEQ ID NO: 2 (AEYHAKATEHLSTL) and D amino acids (also: D amino acids (positions not given here); listed as Homo sapiens) |
| had no effect on MPO-apoA-1 binding | N-Ac (L) KHETHSLAYAAET (Ac-KHETHSLAYAAET; listed as Homo sapiens) [SEQ ID NO: 4, reference compound] |
